Common to all, as to experiment: cell-based or functional assay
The target of assay [1] is T1, SARS-CoV-2 Spike on pseudotyped virus (PsV) (SARS-CoV-2, UniProt P0DTC2 14-1273).
Assay [2] addresses T1, SARS-CoV-2 Spike on pseudotyped virus …. The source holds these as a separate data set.
Assay [3] has the same target. The source holds these as a separate data set.

Changes are numbered by the printed parent chain. Like-named read-outs stand apart in the source and are kept apart here.

B1: mAb 52 (antibody, V domains shown)
VH: QVQLVQSGAEVKKPGSSVKVSCKASGYTFTSYGISWVRQAPGQGLEWMGGIIPMFGTTNYAQKFQGRVTITADKSTSTAYMELSSLRSEDTAVYYCARDRGDTIDYWGQGTLVTVSS
VL: DIQMTQSPSSLSASVGDRVTITCRASQGISNNLNWYQQKPGKAPKLLIYAASSLESGVPSRFSGSGSGTDFTLTISSLQPEDFATYYCQQGNGFPLTFGPGTKVDIKR
For B1, the “IC50 SARS-CoV2 PsV, IgG” value in assay [1] is 0.55 µg/mL. The “Median IC50, SARS-CoV-2 PsV neutralization” value (shortened to “Median IC50”) in assay [2] came out at 0.61 µg/mL.

B2: mAb 120 (antibody, V domains shown)
VH: QVQLVQSGAEVKKPGASVKVSCKASGYTFTSYDINWVRQAPGQGLEWMGMIDPSGGSTSYAQKFQGRVTMTRDTSTSTVYMELSSLRSEDTAVYYCAKDFGGGTRYDYWYFDLWGRGTLVTVSS
VL: EIVMTQSPATLSVSPGERATLSCRASQSVSSRYLAWYQQKPGQAPRLLIYGASTRATGIPARFSGSGSGTEFTLTISSLQSEDFAVYYCQQYYTTPRTFGQGTRLEIKR
B2: in assay [1], the “IC50 SARS-CoV2 PsV, IgG” value is above 50 µg/mL. Moreover, the “Median IC50” value in assay [2] is above 50 µg/mL.

B3: mAb 368 (antibody, V domains shown)
VH: QVQLVQSGAEVKKPGSSVKVSCKASGYTFTSYDINWVRQAPGQGLEWMGAIMPMFGTANYAQKFQGRVTITADESTSTAYMELSSLRSEDTAVYYCARGSSGYYYGWGQGTLVTVSS
VL: not shown
On to B3, for which, in assay [1], the “IC50 SARS-CoV2 PsV, IgG” value is above 50 µg/mL. Also, in assay [2], the “Median IC50” value is above 50 µg/mL.

B4: 4A8 IgG (antibody, V domains shown)
VH: EVQLVESGAEVKKPGASVKVSCKVSGYTLTELSMHWVRQAPGKGLEWMGGFDPEDGETMYAQKFQGRVTMTEDTSTDTAYMELSSLRSEDTAVYYCATSTAVAGTPDLFDYYYGMDVWGQGTTVTVSS
VL: EIVMTQSPLSSPVTLGQPASISCRSSQSLVHSDGNTYLSWLQQRPGQPPRLLIYKISNRFSGVPDRFSGSGAGTDFTLKISRVEAEDVGVYYCTQATQFPYTFGQGTKVDIK
B4: the “Median IC50” value in assay [3] was > 100 g/mL as printed (µg/mL meant).

B5: mAb 108 (antibody, V domains shown)
VH: QVQLVQSGAEVKKPGASVKVSCKASGYIFSRYAIHWVRQAPGQGLEWMGWMNPISGNTDYAPNFQGRVTMTRDTSTSTVYMELSSLRSEDTAVYYCAKDGSQLAYLVEYFQHWGQGTLVTVSS
VL: DIQMTQSPSSLSASVGDRVTITCRASQVITNNLAWYQQKPGKAPKLLIYDASTLETGVPSRFSGSGSGTDFTLTISSLQPEDFATYYCQQSYTFPYTFGQGTKVEIKR
B5: the “IC50 SARS-CoV2 PsV, IgG” value in assay [1] was above 50 µg/mL. Moreover, the “Median IC50” value in assay [2] was above 50 µg/mL.

B6: mAb 82 (antibody, V domains shown)
VH: QVQLVQSGAEVKKPGASVKVSCKASGGSFSTSAFYWVRQAPGQGLEWMGWINPYTGGTNYAQKFQGRVTMTRDTSTSTVYMELSSLRSEDTAVYYCARSRALYGSGSYFDYWGQGTLVTVSS
VL: B5 VL with T30S, N32Y, T53N, Y92F, T93S, F94P, Y96P, K103R, V104L
Take B6: in assay [1], the “IC50 SARS-CoV2 PsV, IgG” value worked out at 1.6 µg/mL. In addition, the “Median IC50” value in assay [2] turned out to be 1.6 µg/mL.

B7: mAb 64 (antibody, V domains shown)
VH: EVQLLESGGGLVQPGGSLRLSCAASGFPFSQHGMHWVRQAPGKGLEWVSAIDRSGSYIYYADSVKGRFTISRDNSKNTLYLQMNSLRAEDTAVYYCARDTYGGKVTYFDYWGQGTLVTVSS
VL: B5 VL with V28G, T30S, N31S, N32H, T53N, S91T, T93S, F94T, Y96W
On to B7, for which the “IC50 SARS-CoV2 PsV, IgG” value in assay [1] was above 50 µg/mL. Moreover, in assay [2], the “Median IC50” value is above 50 µg/mL.

B8: mAb 46 (antibody, V domains shown)
VH: EVQLLESGGGLVQPGRSLRLSCAASGFTFSSYAMSWVRQAPGKGLEWVSTIYSGGSTYYADSVKGRFTISRDNSKNTLYLQMNSLRAEDTAVYYCARGDSRDAFDIWGQGTMVTVSS
VL: B5 VL with V28S, T30S, N31S, N32W, T53N, T93S, F94T, Y96F, Q100P, E105D
Turning to B8, in assay [1], the “IC50 SARS-CoV2 PsV, IgG” value was determined as 2.1 µg/mL. In addition, the “Median IC50” value in assay [2] amounted to 2.1 µg/mL.

B9: mAb 349 (antibody, V domains shown)
VH: EVQLLESGGGLVQPGGSLRLSCAASGFTFSNYGMHWVRQAPGKGLEWVSGISSAGSITNYADSVKGRFTISRDNSKNTLYLQMNSLRAEDTAVYYCAGNHAGTTVTSEYFQHWGQGTLVTVSS
VL: B5 VL with V28S, T30S, N31S, N32W, A51T, T53N, F94T, Y96W, K103R, V104L
Regarding B9, the “IC50 SARS-CoV2 PsV, IgG” value in assay [1] was above 50 µg/mL. The “Median IC50” value in assay [2] is above 50 µg/mL.

B10: mAb 324 (antibody, V domains shown)
VH: QVQLVQSGAEVKKPGASVKVSCKASGGTFNNYGISWVRQAPGQGLEWMGWMNPNSGNTGYAQKFQGRVTMTRDTSTSTVYMELSSLRSEDTAVYYCARVGDYGDYIVSPFDLWGRGTLVTVSS
VL: B5 VL with V28S, N31T, N32Y, A34N, T53N, T93S, F94T, Y96P
For the molecule B10, in assay [1], the “IC50 SARS-CoV2 PsV, IgG” value came to 0.78 µg/mL. Also, in assay [2], the “Median IC50” value came out at 0.78 µg/mL.

B11: mAb 236 (antibody, V domains shown)
VH: QVQLVQSGAEVKKPGASVKVSCKASGGTFTSYGINWVRQAPGQGLEWMGWMNPNSGNTGYAQKFQGRVTMTRDTSTSTVYMELSSLRSEDTAVYYCASRGIQLLPRGMDVWGQGTTVTVSS
VL: not shown
For B11, the “IC50 SARS-CoV2 PsV, IgG” value in assay [1] amounted to 0.057 µg/mL. Besides, in assay [2], the “Median IC50” value came out at 0.057 µg/mL.

B12: mAb 192 (antibody, V domains shown)
VH: QVQLVQSGAEVKKPGSSVKVSCKASGGTFSSYAISWVRQAPGQGLEWMGWINPNSGGANYAQKFQGRVTITADESTSTAYMELSSLRSEDTAVYYCSTYYYDSSGYSTDYWGQGTLVTVSS
VL: DIVMTQSPLSLPVTPGEPASISCRSSQSLLHSNGYNYLDWYLQKPGQSPQLLIYAASSLQSGVPDRFSGSGSGTDFTLKISRVEAEDVGVYYCMQALQTPYTFGQGTKLEIKR
For B12, the “IC50 SARS-CoV2 PsV, IgG” value in assay [1] is above 50 µg/mL. Also, in assay [2], the “Median IC50” value was above 50 µg/mL.

B13: mAb 180 (antibody, V domains shown)
VH: QVQLVQSGAEVKKPGSSVKVSCKASGYTFTSYAMHWVRQAPGQGLEWMGRISPRSGGTKYAQRFQGRVTITADESTSTAYMELSSLRSEDTAVYYCAREAVAGTHPQAGDFDLWGRGTLVTVSS
VL: B12 VL with M94Q, A96Y, L97Y, Q98S, T99S
Take B13: the “IC50 SARS-CoV2 PsV, IgG” value in assay [1] is above 50 µg/mL. For the same molecule, the “Median IC50” value in assay [2] is above 50 µg/mL.

B14: mAb 254 (antibody, V domains shown)
VH: EVQLLESGGGLVQPGGSLRLSCAASGFTFSSSAMHWVRQAPGKGLEWVSAIGTGGDTYYADSVKGRFTISRDNSKNTLYLQMNSLRAEDTAVYYCAREGDGYNFYFDYWGQGTLVTVSS
VL: DIQMTQSPSSLSASVGDRVTITCRASQGISSYLAWYQQKPGKAPKLLIYDASSLQIGVPSRFSGSGSGTDFTLTISSLQPEDFATYYCLQSYSTPPWTFGQGTKVEIKR
For B14, the “IC50 SARS-CoV2 PsV, IgG” value in assay [1] was above 50 µg/mL. Also, in assay [2], the “Median IC50” value is above 50 µg/mL.

B15: mAb 128 (antibody, V domains shown)
VH: QVQLVQSGAEVKKPGASVKVSCKASGYTFTHYYMHWVRQAPGQGLEWMGIINPSSSSASYSQKFQGRVTMTRDTSTSTVYMELSSLRSEDTAVYYCARDGRYGSGSYPFDYWGQGTLVTVSS
VL: DIQMTQSPSSLSASVGDRVTITCRASQNISRYLNWYQQKPGKAPKLLIYDASNLETGVPSRFSGSGSGTDFTLTISSLQPEDFATYYCQQANGFPPTFGQGTKLEIKR
In the case of B15, in assay [1], the “IC50 SARS-CoV2 PsV, IgG” value is above 50 µg/mL. Besides, the “Median IC50” value in assay [2] is above 50 µg/mL.

B16: mAb 56 (antibody, V domains shown)
VH: QVQLVQSGAEVKKPGASVKVSCKASGYTFTSYGISWVRQAPGQGLEWMGWISAYNGNTNYAQKLQGRVTMTRDTSTSTVYMELSSLRSEDTAVYYCARDIGPIDYWGQGTLVTVSS
VL: B15 VL with N28G, R31S, N34A, E55Q, T56S, G93S, P96S, L104V
As for B16, the “IC50 SARS-CoV2 PsV, IgG” value in assay [1] was above 50 µg/mL. Besides, the “Median IC50” value in assay [2] is above 50 µg/mL.

B17: mAb 158 (antibody, V domains shown)
VH: QVQLVQSGAEVKKPGASVKVSCKASGYTFTGYYMHWVRQAPGQGLEWMGWINPLNGGTNFAPKFQGRVTMTRDTSTSTVYMELSSLRSEDTAVYYCARDPGGSYSNDAFDIWGQGTLVTVSS
VL: B15 VL with N28S, T56S, G93S, P96L, Q100G, L104V, E105D
As for B17, in assay [1], the “IC50 SARS-CoV2 PsV, IgG” value was above 50 µg/mL. For the same molecule, in assay [2], the “Median IC50” value was above 50 µg/mL.

B18: mAb 160 (antibody, V domains shown)
VH: QVQLVQSGAEVKKPGASVKVSCKASGYTFTGHDMHWVRQAPGQGLEWMGIINPSGGSTSYAQKFQGRVTMTRDTSTSTVYMELSSLRSEDTAVYYCARANSLRYYYGMDVWGQGTMVTVSS
VL: DIQMTQSPSSLSASVGDRVTITCRASQSVSSWLAWYQQKPGKAPKLLIYAASSLQSGVPSRFSGSGSGTDFTLTISSLQPEDFATYYCQQGYTTPYTFGQGTKLEIKR
On to B18, for which the “IC50 SARS-CoV2 PsV, IgG” value in assay [1] is above 50 µg/mL. Also, in assay [2], the “Median IC50” value is above 50 µg/mL.

B19: mAb 178 (antibody, V domains shown)
VH: QVQLVQSGAEVKKPGASVKVSCKASGYTFTDYHMHWVRQAPGQGLEWMGWINPNSGGTNYAQKFQGRVTMTRDTSTSTVYMELSSLRSEDTAVYYCARDISSWYEITKFDPWGQGTLVTVSS
VL: EIVMTQSPATLSVSPGERATLSCKASQSVSGTYLAWYQQKPGQAPRLLIYGASTRATGIPARFSGSGSGTEFTLTISSLQSEDFAVYYCLQTHSYPPTFGQGTKVEIKR
Take B19: the “IC50 SARS-CoV2 PsV, IgG” value in assay [1] is above 50 µg/mL. In addition, the “Median IC50” value in assay [2] is above 50 µg/mL.

Values taken from patent US20250263469A1 (HOSPITAL FOR SICK CHILDREN, published 2025).
